This experiment addresses iBoNT/A (protease inactive version of BoNT/A) (Clostridium botulinum). As to the kind of experiment: SPR (BIAcore), […] ([…] to […]). For orientation: SPR reads the build-up and loss of mass on a sensor chip optically.

The source of these data is US20090263836A1.

The substance “sFGFR3 (loop 2 and 3 of the extra cellular domain of FGFR3) (receptor)” returned a Kd of 10 nM.

In turn, “SV2C529-566 (luminal part of SV2C) (peptide)” gave a Kd of 5000 nM. Against the preceding substance, the Kd is about 500-fold higher.

In general, Kd refers to the concentration at which binding is half-saturated. A high value points to weaker binding.
